Among the targets are HLA-A*02:01; HLA-A*03:19; HLA-A*32:07; HLA-A*32:15; HLA-A*68:23; HLA-B*15:01; HLA-B*15:42; HLA-B*40:13; HLA-B*45:06; HLA-B*51:01; HLA-B*58:01; HLA-C*04:01; HLA-C*06:02.
Holding throughout (assay): IEDB peptide-MHC binding, purified MHC/competitive/fluorescence; filed as Kd, often an IC50 or EC50 that approximates it; ≥ and ≤ were set here for values at or beyond the usual limits of such assays
Holding throughout (details): source organism: Salmonella enterica subsp. enterica serovar Typhi

Regarding MTMLTRWKI, the Kd (commonly the constant that tells how readily two partners part at equilibrium) was 222 nM with HLA-A*02:01; 3510 nM in the test with HLA-A*03:19; 77.2 nM in the test with HLA-A*32:07; 47.8 nM with HLA-A*32:15; 0.3 nM with HLA-A*68:23; not below 20000 nM in the test with HLA-B*15:01. The equilibrium dissociation constant (Kd) was not below 5000 nM with HLA-B*15:42; 365 nM with HLA-B*40:13; not below 5000 nM with HLA-B*45:06; not below 20000 nM with HLA-B*51:01; 5 nM with HLA-B*58:01; not below 5000 nM in the test with HLA-C*04:01. The Kd in the test with HLA-C*06:02 was found to be 641 nM.
